Assay results: patent US20130330358

Assays:
[1] = test system: T1, vIRF4^202-216 peptide (vif1); experiment: competitive ITC: vIRF4^202-216 titrated into TRAF pre-titrated with p53^350-364 (competitor)
T1 sequence: SVWIPVNEGASTSGM

[2] = test system: T1, vIRF4^202-216 peptide (vif1); experiment: competitive ITC: vIRF4^202-216 titrated into TRAF pre-titrated with p53^355-369 (competitor)
[3] = test system: T1, vIRF4^202-216 peptide (vif1); experiment: competitive ITC: vIRF4^202-216 titrated into TRAF pre-titrated with MDM2^137-152 (competitor)

HAUSP TRAF domain (HAUSP^62-205), sequence (Q93009 62-205): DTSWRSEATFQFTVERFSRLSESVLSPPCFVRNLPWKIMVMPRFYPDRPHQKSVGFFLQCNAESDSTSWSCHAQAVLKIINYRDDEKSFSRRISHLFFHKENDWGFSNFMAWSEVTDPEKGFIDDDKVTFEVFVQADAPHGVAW

Substance: HAUSP TRAF domain (HAUSP^62-205)
- Kobs (observed association constant) [1]: 4.42e+07 M⁻¹
- Kobs (observed association constant) [2]: 3.58e+07 M⁻¹
- Kobs (observed association constant) [3]: 1.09e+07 M⁻¹
